Assay results taken from patent US11987606 (Johns Hopkins, dated 2024).

Biological target: T cell receptor of Ova-specific CD8+ T cells (OT-I), on OT-I cells (mouse)
Assay: cell-based or functional assay

IFN-γ expression of OT-I cells (flow cytometry); potency relative to dimeric Kb(Ova)/Fc: > 100 fold
IFN-γ expression of resting or naïve OT-I cells after 12 hours (flow cytometry); potency by minimal dose of antigen required to detect activation, relative to monomeric Kb(Ova): > 1000 fold
B1: Kb(Ova)/ANXA5 (peptide-MHC)
chain: SIINFEKLGGGASGGGGSGGGGSIQKTPQIQVYSRHPPENGKPNILNCYVTQFHPPHIEIQMLKNGKKIPKVEMSDMSFSKDWSFYILAHTEFTPTETDTYACRVKHASMAEPKTVYWDRDMGGGGSGGGGSGGGGSGGGGSGPHSLRYFVTAVSRPGLGEPRYMEVGYVDDTEFVRFDSDAENPRYEPQAPWMEQEGPEYWERETQKAKGNEQSFRVDLRTLLGYYNQSKGGSHTIQVISGCEVGSDGRLLRGYQQYAYDGCDYIALNEDLKTWTAADMAALITKHKWEQAGEAERLRAYLEGTCVEWLRRYLKNGNATLLRTDSPKAHVTHHSRPEDKVTLRCWALGFYPADITLTWQLNGEELIQDMELVETRPAGDGTFQKWASVVVPLGKEQYYTCHVYHQGLPEPLTLRWEPPPSTRSMAQVLRGTVTDFPGFDERADAETLRKAMKGLGTDEESILTLLTSRSNAQRQEISAAFKTLFGRDLLDDLKSELTGKFEKLIVALMKPSRLYDAYELKHALKGAGTNEKVLTEIIASRTPEELRAIKQVYEEEYGSSLEDDVVGDTSGYYQRMLVVLLQANRDPDAGIDEAQVEQDAQALFQAGELKWGTDEEKFITIFGTRSVSHLRKVFDKYMTISGFQIEETIDRETSGNLEQLLLAVVKSIRSIPAYLAETLYYAMKGAGTDDHTLIRVMVSRSEIDLFNIRKEFRKNFATSLYSMIKGDTSGDYKKALLLLCGEDD
